Each block holds one substance with its values, some of them ahead of it.
Experiments:
[1] = target: human CXC Chemokine Receptor-4 (CXCR4) (human) (UniProt P61073); assay: cell-based or functional assay
[2] = target: LMEC-derived CXCL12 (endogenous CXCL12 of human lung microvascular endothelial cells) (human) (UniProt P48061); assay: cell-based or functional assay
Sequence of LMEC-derived CXCL12 (endogenous CXCL12 of human lung microvascular endothelial cells) (human) (P48061 22-93 limits assumed): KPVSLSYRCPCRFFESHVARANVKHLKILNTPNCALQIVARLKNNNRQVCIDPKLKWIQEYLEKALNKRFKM

Sequence of human CXC Chemokine Receptor-4 (CXCR4) (human) (P61073 whole entry): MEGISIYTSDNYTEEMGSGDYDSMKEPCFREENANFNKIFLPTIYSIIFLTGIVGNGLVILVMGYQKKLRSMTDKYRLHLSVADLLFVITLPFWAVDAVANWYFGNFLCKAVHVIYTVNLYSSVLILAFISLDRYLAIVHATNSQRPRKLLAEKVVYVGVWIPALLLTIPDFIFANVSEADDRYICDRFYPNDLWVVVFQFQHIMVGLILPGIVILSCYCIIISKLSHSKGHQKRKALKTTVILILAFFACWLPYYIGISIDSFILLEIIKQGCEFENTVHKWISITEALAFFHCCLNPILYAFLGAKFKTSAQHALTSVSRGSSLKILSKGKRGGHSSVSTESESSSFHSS
Sequence of recombinant CXCL12 (SDF-1) (ligand) (P48061 22-93): as the sequence (P48061 22-93 limits assumed) above
Sequence of CCL19 (control chemokine) (ligand) (Q99731 22-98): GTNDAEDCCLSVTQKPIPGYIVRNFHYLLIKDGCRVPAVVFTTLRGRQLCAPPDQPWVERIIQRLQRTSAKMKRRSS

Substance: CCL19 (control chemokine) (ligand)
- adhesion of CXCR4-B16 cells to chemokine-treated DMEC (adherent cells, parallel plate flow chamber) [1]: 6.8
- arrest of CXCR4-B16 cells on plates co-coated with VCAM-1/Ig and CCL19 at 1.5 dynes/cm^2 (Mean adherent cells/field) [1]: 17.2

Substance: LMEC-derived CXCL12 (endogenous CXCL12 of human lung microvascular endothelial cells) (from UniProt P48061 22-93) (ligand)
- arrest of CXCR4-B16 against pLNCX2-B16 cells on LMEC, no exogenous CXCL12 [1]: 3 times
- arrest of CXCR4-B16 cells on TNFα-treated LMEC under flow, no exogenous CXCL12 (Mean adherent cells/field) [1]: 102

Substance: anti-human CXCL12 mAb (clone 77014.111, R&D Systems) (antibody)
- arrest of CXCR4-B16 cells on LMEC pretreated with anti-CXCL12 mAb (100 µg/ml) (Mean adherent cells/field) [2]: 41.2

Second part, the substance after the results:

- arrest on TNF-α-stimulated LMEC of CXCR4-B16 cells pretreated with anti-CXCR4 mAb (10 µg/ml) (Mean adherent cells/field) [1]: 7.5
Substance: Mouse anti-human CXCR4 mAb (clone 44716.111, R&D Systems) (antibody)

- adhesion of CXCR4-B16 cells to CXCL12-treated DMEC (adherent cells, parallel plate flow chamber) [1]: 85.2
- adhesion of CXCR4-B16 cells to CXCL12-treated LMEC (adherent cells) [1]: 321
- arrest of CXCR4-B16 cells on TNFα-treated LMEC under flow, with exogenous CXCL12 (Mean adherent cells/field) [1]: 170
- arrest of CXCR4-B16 cells on plates co-coated with VCAM-1/Ig and CXCL12 at 1.5 dynes/cm^2 (Mean adherent cells/field) [1]: 87.2
- growth of CXCR4-B16 cells in low serum, cell count at 24 h [1]: 19.3
- growth of CXCR4-B16 cells in low serum, cell count at 48 h [1]: 35.3
Substance: recombinant CXCL12 (SDF-1) (ligand)

Source: patent publication US20040132642A1, “Methods of inhibiting metastasis or growth of a tumor cell” (Government of the U.S.A., represented by the Secretary, …, priority 2002, published 2004)
